Consider 48 substances from the Human Domainome abundance scans (Beltran et al. 2025).

± gives the uncertainty stated by the source.

This series in a line: abundance fitness (aPCA) (normalised: wild type 0, dead -1); higher = more abundant; growth selection in yeast, the domain comes from the species named. The note with it: Homo sapiens.
“E3 ubiquitin-protein ligase NEDD4-like W221D, Q96PU5” showed an abundance fitness of -0.029 ± 0.1.
In turn, “E3 ubiquitin-protein ligase NEDD4-like W221E, Q96PU5” gave an abundance fitness of -0.106 ± 0.085.
In turn, “E3 ubiquitin-protein ligase NEDD4-like W221F, Q96PU5” gave an abundance fitness of -0.04 ± 0.084.
As to “E3 ubiquitin-protein ligase NEDD4-like W221G, Q96PU5”, the abundance fitness is -0.219 ± 0.063.
Consider “E3 ubiquitin-protein ligase NEDD4-like W221H, Q96PU5”, for which the abundance fitness was -0.243 ± 0.1.
As to “E3 ubiquitin-protein ligase NEDD4-like W221I, Q96PU5”, the abundance fitness was -0.192 ± 0.12.
Regarding “E3 ubiquitin-protein ligase NEDD4-like W221K, Q96PU5”, the abundance fitness is -0.044 ± 0.1.
To “E3 ubiquitin-protein ligase NEDD4-like W221L, Q96PU5” belongs -0.031 ± 0.054.
Substance “E3 ubiquitin-protein ligase NEDD4-like W221N, Q96PU5” came in with an abundance fitness of -0.402 ± 0.11.
As to “E3 ubiquitin-protein ligase NEDD4-like W221Q, Q96PU5”, the abundance fitness came out at 0.196 ± 0.1.
As for “E3 ubiquitin-protein ligase NEDD4-like W221R, Q96PU5”, the abundance fitness is -0.052 ± 0.058.
“E3 ubiquitin-protein ligase NEDD4-like W221S, Q96PU5” had an abundance fitness of 0.124 ± 0.063.
“E3 ubiquitin-protein ligase NEDD4-like W221T, Q96PU5” showed an abundance fitness of -0.035 ± 0.063.
Substance “E3 ubiquitin-protein ligase NEDD4-like W221V, Q96PU5” displayed an abundance fitness of -0.123 ± 0.066.
The substance “E3 ubiquitin-protein ligase NEDD4-like W221Y, Q96PU5” returned an abundance fitness of 0.193 ± 0.12.
For “E3 ubiquitin-protein ligase NEDD4-like Y210A, Q96PU5”, the abundance fitness was -0.379 ± 0.067.
As for “E3 ubiquitin-protein ligase NEDD4-like Y210C, Q96PU5”, the abundance fitness was -0.386 ± 0.1.
“E3 ubiquitin-protein ligase NEDD4-like Y210E, Q96PU5” returned an abundance fitness of -0.516 ± 0.082.
“E3 ubiquitin-protein ligase NEDD4-like Y210F, Q96PU5” had an abundance fitness of -0.255 ± 0.1.
“E3 ubiquitin-protein ligase NEDD4-like Y210G, Q96PU5” registered an abundance fitness of -0.621 ± 0.057.
With “E3 ubiquitin-protein ligase NEDD4-like Y210I, Q96PU5”, the abundance fitness is -0.379 ± 0.07.
In the case of “E3 ubiquitin-protein ligase NEDD4-like Y210K, Q96PU5”, the abundance fitness is -0.269 ± 0.069.
“E3 ubiquitin-protein ligase NEDD4-like Y210L, Q96PU5” showed an abundance fitness of -0.261 ± 0.058.
For “E3 ubiquitin-protein ligase NEDD4-like Y210M, Q96PU5”, the abundance fitness was -0.19 ± 0.084.
As for “E3 ubiquitin-protein ligase NEDD4-like Y210N, Q96PU5”, the abundance fitness is -0.589 ± 0.095.
Turning to “E3 ubiquitin-protein ligase NEDD4-like Y210P, Q96PU5”, the abundance fitness was -0.778 ± 0.1.
“E3 ubiquitin-protein ligase NEDD4-like Y210Q, Q96PU5” returned an abundance fitness of -0.198 ± 0.069.
In the case of “E3 ubiquitin-protein ligase NEDD4-like Y210R, Q96PU5” it was -0.299 ± 0.063; in that of “E3 ubiquitin-protein ligase NEDD4-like Y210S, Q96PU5”, -0.359 ± 0.071; in that of “E3 ubiquitin-protein ligase NEDD4-like Y210T, Q96PU5”, -0.159 ± 0.072.
Take “E3 ubiquitin-protein ligase NEDD4-like Y210V, Q96PU5”: the abundance fitness was -0.356 ± 0.069.
To “E3 ubiquitin-protein ligase NEDD4-like Y210W, Q96PU5” belongs -0.287 ± 0.08; to “E3 ubiquitin-protein ligase NEDD4-like Y211C, Q96PU5”, -0.696 ± 0.08; to “E3 ubiquitin-protein ligase NEDD4-like Y211D, Q96PU5”, -0.486 ± 0.065.
The substance “E3 ubiquitin-protein ligase NEDD4-like Y211E, Q96PU5” returned an abundance fitness of -0.643 ± 0.058.
Consider “E3 ubiquitin-protein ligase NEDD4-like Y211G, Q96PU5”, for which the abundance fitness is -0.749 ± 0.058.
As to “E3 ubiquitin-protein ligase NEDD4-like Y211H, Q96PU5”, the abundance fitness is -0.77 ± 0.12.
In turn, “E3 ubiquitin-protein ligase NEDD4-like Y211I, Q96PU5” had an abundance fitness of -0.601 ± 0.065.
Take “E3 ubiquitin-protein ligase NEDD4-like Y211K, Q96PU5”: the abundance fitness was -0.691 ± 0.097.
In the case of “E3 ubiquitin-protein ligase NEDD4-like Y211M, Q96PU5”, the abundance fitness was -0.779 ± 0.11.
In the case of “E3 ubiquitin-protein ligase NEDD4-like Y211N, Q96PU5” it was -0.704 ± 0.16.
On to “E3 ubiquitin-protein ligase NEDD4-like Y211P, Q96PU5”, for which the abundance fitness is -0.548 ± 0.087.
Consider “E3 ubiquitin-protein ligase NEDD4-like Y211Q, Q96PU5”, for which the abundance fitness was -0.704 ± 0.085.
On to “E3 ubiquitin-protein ligase NEDD4-like Y211R, Q96PU5”, for which the abundance fitness was -0.728 ± 0.052.
For the substance “E3 ubiquitin-protein ligase NEDD4-like Y211S, Q96PU5”, the abundance fitness was -0.715 ± 0.055.
Substance “E3 ubiquitin-protein ligase NEDD4-like Y211T, Q96PU5” had an abundance fitness of -0.608 ± 0.064.
Turning to “E3 ubiquitin-protein ligase NEDD4-like Y211V, Q96PU5”, the abundance fitness is -0.736 ± 0.06.
Consider “E3 ubiquitin-protein ligase NEDD4-like Y211W, Q96PU5”, for which the abundance fitness is -0.244 ± 0.078.
